Values of other authors, collected in US5916869A, “Method of treating birds in ovo” (North Carolina State University, priority 1997, dated 1999).

Test system: sodium-dependent duodenal active transport
Conditions: sheep, injected

B1: recombinant bovine growth hormone (protein, UniProt P01246 27-217, looked up)
Somatotropin: AFPAMSLSGLFANAVLRAQHLHQLAADTFKEFERTYIPEGQRYSIQNTQVAFCFSETIPAPTGKNEAQQKSDLELLRISLLLIQSWLGPLQFLSRVFTNSLVFGTSDRVYEKLKDLEEGILALMRELEDGTPRAGQILKQTYDKFDTNMRSDDALLKNYGLLSCFRKDLHKTETYLRVMKCRRFGEASCAF
notes: recombinant bovine growth hormone injected into sheep in a cited study
increase of sodium-dependent duodenal active transport of glucose: approximately 60% | increase of transport of proline: approximately 30%
